Source: patent US20220127316A1 (University of Pennsylvania, published 2022)

Molecular target: T1, recombinant human GFRα-like His-tag receptor (R&D 9647-GR-050) (human, UniProt Q6UXV0 19-351)
T1 construct: Bought protein, captured on a Pierce nickel coated plate at 0.1 µg/mL; also called GFRAL receptor; GDNF family receptor alpha-like; not shown: His-tag
T1 sequence (looked up): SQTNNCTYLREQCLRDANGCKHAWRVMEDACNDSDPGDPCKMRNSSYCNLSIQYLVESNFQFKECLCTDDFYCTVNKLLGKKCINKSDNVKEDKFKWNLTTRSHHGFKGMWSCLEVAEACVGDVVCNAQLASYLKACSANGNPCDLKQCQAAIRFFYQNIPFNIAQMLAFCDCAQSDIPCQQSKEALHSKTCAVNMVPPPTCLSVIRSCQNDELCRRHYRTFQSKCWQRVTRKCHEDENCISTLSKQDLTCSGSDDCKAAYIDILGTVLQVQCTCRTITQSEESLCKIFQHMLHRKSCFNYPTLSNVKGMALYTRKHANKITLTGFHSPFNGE
Experiment: ELISA; His-tagged GFRAL captured on nickel coated plate, GDF15 titrated 100 to 0.005 ng/mL, detected with anti-GDF15 primary antibody
Protocol: To validate binding of the synthesized peptides to the GFRAL receptor, an ELISA assay was developed to determine the binding affinity of the peptides for their receptor. The primary antibody (Abcam ab206414) was diluted to 1 μg/mL. The secondary antibody was diluted by placing 5 μL into 10 mL assay buffer. GDF15 was run at concentrations of 100 ng/mL to 0.005 ng/mL. The recombinant human GFRα-like His-tag receptor (R&D 9647-GR-050) was added to the Pierce™ nickel coated plate (ThermoFisher Scientific 15442) at 0.1 μg/mL in a total volume of 100 μL.

- Kd: 1.03 ng/mL
B1: Recombinant human GDF-15 (rhGDF15) (ligand, UniProt Q99988 197-308, looked up)
chain: ARNGDHCPLGPGRCCRLHTVRASLEDLGWADWVLSPREVQVTMCIGACPSQFRAANMHAQIKTSLHRLKPDTVPAPCCVPASYNPMVLIQKTDTGVSLQTYDDLLAKDCHCI
notes: Run at 100 ng/mL to 0.005 ng/mL in the ELISA and detected with primary antibody Abcam ab206414; also called growth and differentiation factor 15; MIC-1
